Data on 4 substances can be found in PMC2626280.

The target of assay [1] is purified skeletal muscle actin (rabbit) (UniProt P68135). The experiment in a line: inhibition of actin polymerization (ultracentrifugation assay); apparent; skeletal muscle actin (18 µM) with increasing GST-RPEL (350–422 aa); 100 mM KCl, 2 mM MgCl2, 10 mM Tris-HCl pH 7.8, 20°C 60 min (legend: room temperature 30 minutes); 130,000 g 15 min; fraction of depolymerized actin by densitometry, nonlinear regression.

Assay [2] concerns the target actin (Oryctolagus cuniculus) (UniProt P68135). To be noted: cited from earlier work.
Assay [3] has the same target. The note with it: cited from earlier work. The source holds these as a separate data set.
Assay [4] has the same target. To be noted: cited from earlier work. The source holds these as a separate data set.

Like-named read-outs stand apart in the source and are kept apart here.

For the substance “GST-RPEL construct of scapinin, 350–422 aa (domain or fragment)”, in assay [1], the Kd was 0.018 µM and the stoichiometry N was 1.21.

Turning to MAL RPEL1 (from UniProt Q8K4J6), in assay [2], the Kd is 5.4 µM.

With MAL RPEL2 (from UniProt Q8K4J6), the Kd in assay [3] was 2.3 µM.

As to MAL RPEL3 (from UniProt Q8K4J6), the Kd in assay [4] was 18.8 µM.

For orientation: stoichiometry N means the number of molecules, sites or subunits per partner or assembly.
